Assay results as given in article PMC9482650, “Quantitative fragmentomics allow affinity mapping of interactomes” (Nature Communications, 2022).

How the values were obtained:
Experiment in all cases: holdup assay
Parameters in all cases: key: below the threshold = too weak to quantify, mostly under pKd 3.1 to 4
Conditions in all cases: plain residues with an end cap or a label only (N-terminal biotin on a linker: ttds)
DLG2_3, Q15700 = target: DLG2_3, Q15700
GRIP2_6, Q9C0E4 = target: GRIP2_6, Q9C0E4
DLG1_1, Q12959 = target: DLG1_1, Q12959
MPDZ_10, O75970 = target: T1, MPDZ_10, O75970
T1 sequence (O75970 1624-1722, limits assumed, looked up): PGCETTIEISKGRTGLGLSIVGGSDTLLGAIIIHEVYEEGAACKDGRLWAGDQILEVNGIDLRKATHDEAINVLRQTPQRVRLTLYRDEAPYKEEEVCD

SIPA1L2, Q9P2F8 = target: T2, SIPA1L2, Q9P2F8
T2 sequence (Q9P2F8 945-1036, limits assumed, looked up): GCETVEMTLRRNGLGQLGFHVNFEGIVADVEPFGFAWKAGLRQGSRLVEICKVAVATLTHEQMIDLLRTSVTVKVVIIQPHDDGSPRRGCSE

SCRIB_3, Q14160 = target: SCRIB_3, Q14160
MPP2, Q14168 = target: T3, MPP2, Q14168
T3 sequence (Q14168 180-250, limits assumed, looked up): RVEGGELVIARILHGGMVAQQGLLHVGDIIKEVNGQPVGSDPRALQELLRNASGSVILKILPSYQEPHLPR

LIN7C, Q9NUP9 = target: T4, LIN7C, Q9NUP9
T4 sequence (Q9NUP9 88-185, limits assumed, looked up): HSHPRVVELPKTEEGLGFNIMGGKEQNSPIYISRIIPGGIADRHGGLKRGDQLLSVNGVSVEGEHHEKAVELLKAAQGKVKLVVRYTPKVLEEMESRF

NHERF4_2, Q86UT5 = target: NHERF4_2, Q86UT5
GRIP2_7, Q9C0E4 = target: GRIP2_7, Q9C0E4
GRIP2_5, Q9C0E4 = target: GRIP2_5, Q9C0E4
FRMPD1, Q5SYB0 = target: T5, FRMPD1, Q5SYB0
T5 sequence (Q5SYB0 52-145, limits assumed, looked up): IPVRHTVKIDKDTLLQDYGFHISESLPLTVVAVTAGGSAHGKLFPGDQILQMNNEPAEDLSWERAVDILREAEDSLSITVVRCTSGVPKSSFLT

LDB3, O75112 = target: LDB3, O75112
MAGI1_2, Q96QZ7 = target: MAGI1_2, Q96QZ7
PARD3_3, Q8TEW0 = target: PARD3_3, Q8TEW0
TX1BP3, O14907 = target: T6, TX1BP3, O14907
T6 sequence (O14907 10-122, limits assumed, looked up): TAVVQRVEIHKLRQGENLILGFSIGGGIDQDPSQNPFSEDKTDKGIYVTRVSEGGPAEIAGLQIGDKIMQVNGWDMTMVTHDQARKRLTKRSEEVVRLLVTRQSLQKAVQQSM

APBA2_2, Q99767 = target: T7, APBA2_2, Q99767
T7 sequence (Q99767 654-744, limits assumed, looked up): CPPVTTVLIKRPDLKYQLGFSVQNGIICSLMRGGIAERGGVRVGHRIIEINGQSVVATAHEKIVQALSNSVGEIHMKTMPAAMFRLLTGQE

DLG3_1, Q92796 = target: T8, DLG3_1, Q92796
T8 sequence (Q92796 125-227, limits assumed, looked up): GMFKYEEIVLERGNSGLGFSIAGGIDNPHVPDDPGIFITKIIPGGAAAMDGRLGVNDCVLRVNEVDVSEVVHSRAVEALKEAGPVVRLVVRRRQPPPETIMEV

Inadl_10, Q8NI35 = target: Inadl_10, Q8NI35
HTRA2, O43464 = target: HTRA2, O43464
GORASP1, Q9BQQ3 = target: GORASP1, Q9BQQ3
DVL3, Q92997 = target: T9, DVL3, Q92997
T9 sequence (Q92997 244-331, limits assumed, looked up): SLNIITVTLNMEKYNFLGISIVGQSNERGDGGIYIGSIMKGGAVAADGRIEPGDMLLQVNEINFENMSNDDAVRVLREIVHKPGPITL

LNX2_2, Q8N448 = target: T10, LNX2_2, Q8N448
T10 sequence (Q8N448 334-432, limits assumed, looked up): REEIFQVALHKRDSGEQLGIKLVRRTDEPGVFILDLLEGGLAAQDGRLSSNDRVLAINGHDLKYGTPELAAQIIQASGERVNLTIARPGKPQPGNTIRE

NOS1, P29475 = target: NOS1, P29475
GRIP2_4, Q9C0E4 = target: GRIP2_4, Q9C0E4
DFNB31_2, Q9P202 = target: T11, DFNB31_2, Q9P202
T11 sequence (Q9P202 274-371, limits assumed, looked up): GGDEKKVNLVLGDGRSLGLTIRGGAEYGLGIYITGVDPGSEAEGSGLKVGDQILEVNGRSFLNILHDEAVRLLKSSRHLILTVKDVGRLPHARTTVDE

Sequence of GRIP2_7, Q9C0E4 (Q9C0E4 934-1023): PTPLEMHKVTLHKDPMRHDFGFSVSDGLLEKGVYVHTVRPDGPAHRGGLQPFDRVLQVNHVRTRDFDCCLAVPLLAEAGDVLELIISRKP
Sequence of GRIP2_4, Q9C0E4 (Q9C0E4 446-548): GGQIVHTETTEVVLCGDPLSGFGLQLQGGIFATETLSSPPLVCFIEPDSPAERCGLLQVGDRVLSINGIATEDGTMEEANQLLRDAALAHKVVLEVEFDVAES
Sequence of NHERF4_2, Q86UT5 (Q86UT5 220-308): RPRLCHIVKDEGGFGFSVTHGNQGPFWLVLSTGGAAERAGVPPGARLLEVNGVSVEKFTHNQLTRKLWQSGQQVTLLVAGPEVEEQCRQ
Sequence of SCRIB_3, Q14160 (Q14160 999-1103): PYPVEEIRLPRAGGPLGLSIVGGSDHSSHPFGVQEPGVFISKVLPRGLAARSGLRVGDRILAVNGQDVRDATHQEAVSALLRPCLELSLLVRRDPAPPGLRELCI
Sequence of GRIP2_5, Q9C0E4 (Q9C0E4 544-642): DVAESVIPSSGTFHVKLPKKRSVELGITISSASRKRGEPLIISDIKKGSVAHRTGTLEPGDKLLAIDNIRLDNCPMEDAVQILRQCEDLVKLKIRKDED
Sequence of Inadl_10, Q8NI35 (Q8NI35 1673-1763): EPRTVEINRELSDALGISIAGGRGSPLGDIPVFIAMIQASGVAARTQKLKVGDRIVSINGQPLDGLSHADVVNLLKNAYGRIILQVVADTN
Sequence of GORASP1, Q9BQQ3 (Q9BQQ3 1-208): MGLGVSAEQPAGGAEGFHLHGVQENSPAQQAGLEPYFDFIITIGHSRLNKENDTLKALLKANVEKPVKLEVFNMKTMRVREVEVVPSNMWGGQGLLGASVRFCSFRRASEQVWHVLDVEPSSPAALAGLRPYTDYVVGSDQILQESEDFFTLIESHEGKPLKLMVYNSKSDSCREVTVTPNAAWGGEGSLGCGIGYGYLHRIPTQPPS
Sequence of MAGI1_2, Q96QZ7 (Q96QZ7 456-580): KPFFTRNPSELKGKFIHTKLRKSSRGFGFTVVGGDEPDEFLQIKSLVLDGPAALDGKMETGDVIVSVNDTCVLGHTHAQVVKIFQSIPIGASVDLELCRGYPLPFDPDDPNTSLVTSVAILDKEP
Sequence of PARD3_3, Q8TEW0 (Q8TEW0 582-685): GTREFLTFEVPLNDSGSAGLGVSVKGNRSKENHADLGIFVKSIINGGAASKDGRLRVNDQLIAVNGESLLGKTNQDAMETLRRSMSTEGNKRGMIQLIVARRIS
Sequence of NOS1, P29475 (P29475 9-101): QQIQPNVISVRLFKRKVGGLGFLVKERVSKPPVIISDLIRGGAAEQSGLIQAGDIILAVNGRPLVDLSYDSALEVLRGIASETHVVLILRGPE
Sequence of HTRA2, O43464 (O43464 355-458): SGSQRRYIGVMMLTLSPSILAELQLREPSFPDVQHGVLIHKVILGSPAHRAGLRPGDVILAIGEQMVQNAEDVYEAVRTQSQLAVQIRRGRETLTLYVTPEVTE
Sequence of LDB3, O75112 (O75112 1-94): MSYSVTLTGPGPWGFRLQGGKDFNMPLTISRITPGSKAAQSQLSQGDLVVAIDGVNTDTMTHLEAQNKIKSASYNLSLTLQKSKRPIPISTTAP
Sequence of GRIP2_6, Q9C0E4 (Q9C0E4 648-740): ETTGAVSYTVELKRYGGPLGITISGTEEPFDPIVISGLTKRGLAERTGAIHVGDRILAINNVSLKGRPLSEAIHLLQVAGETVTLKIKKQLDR

Binder | pKd (DLG2_3, Q15700) | pKd (GRIP2_6, Q9C0E4) | pKd (DLG1_1, Q12959) | pKd (MPDZ_10, O75970) | pKd (SIPA1L2, Q9P2F8) | pKd (SCRIB_3, Q14160) | pKd (MPP2, Q14168) | pKd (LIN7C, Q9NUP9) | pKd (NHERF4_2, Q86UT5) | pKd (GRIP2_7, Q9C0E4) | pKd (GRIP2_5, Q9C0E4) | pKd (FRMPD1, Q5SYB0) | pKd (LDB3, O75112) | pKd (MAGI1_2, Q96QZ7) | pKd (PARD3_3, Q8TEW0) | pKd (TX1BP3, O14907) | pKd (APBA2_2, Q99767) | pKd (DLG3_1, Q92796) | pKd (Inadl_10, Q8NI35) | pKd (HTRA2, O43464) | also measured
DEDQHTQITKV [PTEN, P60484] | below the threshold | 3.49 | 3.64 | 3.98 | below the threshold | 3.94 | below the threshold | below the threshold | below the threshold | 3.55 | below the threshold | below the threshold | below the threshold | below the threshold | 3.55 | below the threshold | below the threshold | below the threshold | 3.58 | below the threshold | pKd (GORASP1, Q9BQQ3): 3.88; pKd (DVL3, Q92997): below the threshold; pKd (LNX2_2, Q8N448): 4.25; pKd (NOS1, P29475): below the threshold; pKd (GRIP2_4, Q9C0E4): below the threshold; pKd (DFNB31_2, Q9P202): 3.62
CNTVTVETVV [MAS1, P04201] | below the threshold | below the threshold | 4.06 | 3.51 | below the threshold | below the threshold | below the threshold | 3.64 | below the threshold | below the threshold | below the threshold | below the threshold | below the threshold | below the threshold | below the threshold | below the threshold | below the threshold | 3.51 | below the threshold | below the threshold | pKd (GORASP1, Q9BQQ3): below the threshold; pKd (DVL3, Q92997): below the threshold; pKd (LNX2_2, Q8N448): 4.13; pKd (NOS1, P29475): below the threshold; pKd (GRIP2_4, Q9C0E4): 3.55; pKd (DFNB31_2, Q9P202): below the threshold
NYWPGKETQL [SLCO1C1, Q9NYB5] | 4.69 | below the threshold | 4.74 | below the threshold | below the threshold | 5.6 | below the threshold | 4.93 | below the threshold | below the threshold | below the threshold | below the threshold | below the threshold | 4.15 | below the threshold | 5.47 | below the threshold | 3.9 | below the threshold | below the threshold | pKd (GORASP1, Q9BQQ3): below the threshold; pKd (DVL3, Q92997): below the threshold; pKd (LNX2_2, Q8N448): below the threshold; pKd (NOS1, P29475): 4.41; pKd (GRIP2_4, Q9C0E4): below the threshold; pKd (DFNB31_2, Q9P202): 4.36
RRVRKLPSTTL [RPS6KA1, Q15418] | 3.49 | below the threshold | below the threshold | 3.76 | below the threshold | 4.36 | below the threshold | below the threshold | below the threshold | below the threshold | below the threshold | below the threshold | below the threshold | 4.3 | 3.71 | below the threshold | below the threshold | below the threshold | below the threshold | below the threshold | pKd (GORASP1, Q9BQQ3): below the threshold; pKd (DVL3, Q92997): below the threshold; pKd (LNX2_2, Q8N448): 3.6; pKd (NOS1, P29475): 3.7; pKd (GRIP2_4, Q9C0E4): below the threshold; pKd (DFNB31_2, Q9P202): below the threshold
TEEEVQDTRL [CFTR, P13569] | below the threshold | below the threshold | below the threshold | below the threshold | below the threshold | below the threshold | below the threshold | below the threshold | below the threshold | below the threshold | below the threshold | below the threshold | below the threshold | below the threshold | 3.89 | below the threshold | below the threshold | below the threshold | below the threshold | below the threshold | pKd (GORASP1, Q9BQQ3): below the threshold; pKd (DVL3, Q92997): below the threshold; pKd (LNX2_2, Q8N448): below the threshold; pKd (NOS1, P29475): 3.53; pKd (GRIP2_4, Q9C0E4): below the threshold; pKd (DFNB31_2, Q9P202): below the threshold
